The results in this text go back to patent US20180094248A1 (ARIZONA BOARD OF REGENTS ON BEHALF OF ARIZONA STATE …, published 2018).

B1: Receptor Interacting Protein Kinase-3 (RIPK3) (enzyme, human, UniProt Q9Y572 1-518, looked up)
chain: MSCVKLWPSGAPAPLVSIEELENQELVGKGGFGTVFRAQHRKWGYDVAVKIVNSKAISREVKAMASLDNEFVLRLEGVIEKVNWDQDPKPALVTKFMENGSLSGLLQSQCPRPWPLLCRLLKEVVLGMFYLHDQNPVLLHRDLKPSNVLLDPELHVKLADFGLSTFQGGSQSGTGSGEPGGTLGYLAPELFVNVNRKASTASDVYSFGILMWAVLAGREVELPTEPSLVYEAVCNRQNRPSLAELPQAGPETPGLEGLKELMQLCWSSEPKDRPSFQECLPKTDEVFQMVENNMNAAVSTVKDFLSQLRSSNRRFSIPESGQGGTEMDGFRRTIENQHSRNDVMVSEWLNKLNLEEPPSSVPKKCPSLTKRSRAQEEQVPQAWTAGTSSDSMAQPPQTPETSTFRNQMPSPTSTGTPSPGPRGNQGAERQGMNWSCRTPEPNPVTGRPLVNIYNCSGVQVGDNNYLTMQQTTALPTWGLAPSGKGRGLQHPPPVGSQEGPKDPEAWSRPQGWYNHSGK
notes: Endogenous protein in human brain sections

The target in test [1] is T1, Receptor Interacting Protein Kinase-1 (RIPK1) (human, UniProt Q13546 1-671).
T1 construct: Endogenous protein in human AD and CTL brain extracts (TBS/Triton-X100) and in human cell lysates; also called RIP1
T1 sequence (looked up): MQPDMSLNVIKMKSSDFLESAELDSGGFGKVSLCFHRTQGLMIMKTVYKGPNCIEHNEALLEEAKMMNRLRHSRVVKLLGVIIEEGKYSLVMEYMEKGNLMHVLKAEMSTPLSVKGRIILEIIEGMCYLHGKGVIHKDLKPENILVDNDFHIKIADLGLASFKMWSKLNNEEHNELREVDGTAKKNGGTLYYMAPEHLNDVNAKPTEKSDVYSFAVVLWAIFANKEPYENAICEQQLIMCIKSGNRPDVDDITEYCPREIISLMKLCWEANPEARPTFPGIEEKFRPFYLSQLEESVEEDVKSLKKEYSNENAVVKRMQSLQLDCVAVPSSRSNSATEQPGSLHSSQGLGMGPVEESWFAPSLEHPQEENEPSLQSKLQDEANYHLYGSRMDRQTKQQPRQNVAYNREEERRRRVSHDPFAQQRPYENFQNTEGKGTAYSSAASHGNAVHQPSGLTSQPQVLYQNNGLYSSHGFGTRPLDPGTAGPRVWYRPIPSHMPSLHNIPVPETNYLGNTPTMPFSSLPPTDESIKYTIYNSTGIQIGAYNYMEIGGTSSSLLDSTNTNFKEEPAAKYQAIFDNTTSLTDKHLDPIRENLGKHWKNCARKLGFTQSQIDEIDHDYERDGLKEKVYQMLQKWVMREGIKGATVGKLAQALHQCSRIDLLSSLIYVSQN
Briefly: confocal co-localization in co-labeled human brain sections. The procedure:
(§1) The tissue was then washed in water and let dry overnight. The next day the slides were cleared in xylene and coverslipped with DPX mounting solution (Sigma-Aldrich). The immunohistochemistry on the brain sections from APP/PS1 was conducted following a similar protocol as we previously detailed 49. In this case, sections were stained with an anti-A(342 specific antibody (1:200; Millipore, catalog number AB5078P) and with a neuronal marker NeuN (1:200, Millipore, catalog number MAB377), Iba1 (Wako), GFAP (Cell Signaling) and GFP (1:200, Thermo Fisher Scientific, catalog number A-11122).
(§2) Confocal microscopy and image analysis: All images were acquired at a resolution size of x=1024, y=1024, and z=1, using a 63× oil immersion objective and zoom of 1.5 using the Leica DM 2500 confocal microscope. Image fields within the x-y plane of the tissue section were randomly selected. For each image acquired, channels were split to allow separate pixel quantification in both the 561 nm and 635 nm channels. To quantify total protein in each image field, channels were split and the integrated signal density of each channel was quantified using ImageJ software. Human brain tissue sections immunostained for RIPK1, RIPK3, MLKL, and pMLKL were analyzed to measure absolute protein levels, as well as co-localization between RIPK1 and RIPK3, RIPK3 and MLKL, and RIPK1 and MLKL. […]

The target in test [2] is B1. The test is described as above. How it is done:
as §1, §2

On to B1, for which, in test [1], the binding result is “binds”.

B2: Mixed Lineage Kinase Domain-Like (MLKL) (other)
chain: MENLKHIITLGQVIHKRCEEMKYCKKQCRRLGHRVLGLIKPLEMLQDQGKRSVPSEKLTTAMNRFKAALEEANGEIEKFSNRSNICRFLTASQDKILFKDVNRKLSDVWKELSLLLQVEQRMPVSPISQGASWAQEDQQDADEDRRAFQMLRRDNEKIEASLRRLEINMKEIKETLRQYLPPKCMQEIPQEQIKEIKKEQLSGSPWILLRENEVSTLYKGEYHRAPVAIKVFKKLQAGSIAIVRQTFNKEIKTMKKFESPNILRIFGICIDETVTPPQFSIVMEYCELGTLRELLDREKDLTLGKRMVLVLGAARGLYRLHHSEAPELHGKIRSSNFLVTQGYQVKLAGFELRKTQTSMSLGTTREKTDRVKSTAYLSPQELEDVFYQYDVKSEIYSFGIVLWEIATGDIPFQGCNSEKIRKLVAVKRQQEPLGEDCPSELREIIDECRAHDPSVRPSVDEILKKLSTFSK
notes: Endogenous protein in human brain extracts and HAP1 cells
As to B2, the binding result in test [2] is reported as “binds”.
